Source: the RNAGym collection of RNA variant scans (doi:10.1073/pnas.2313332121)
Fewer inactive variants are shown than the library holds.

B1: TPR 5TU (parent)
chain: GGAUCUUCUCGAUCUAACAAAAAAGACAAAUCUGCCACAAAGCUUGAGAGCAUCUUCGGAUGCAGAGGCGGCAGCCUUCGGUGGCGCGAUAGCGCCAACGUUCUCAACUAUGACACGCAAAACGCGUGCUCCGUUGAAUGGAGUUUAUCAUG

Variants of: B1
Test: polymerase ribozyme fitness, log enrichment relative to wild type (log ratio); higher = more active; in vitro selection for triplet polymerase activity
In short: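 A single round of triplicate in vitro selection, including frozen incubation at −7 °C, was applied to PCR-built, transcribed mutant libraries of each subunit of a heterodimeric triplet polymerase ribozyme. Illumina sequencing of input and output libraries retained genotypes with ≥10 input reads and ≥1 read per output. Fitness is the base-2 logarithm of genotype enrichment divided by wild-type enrichment, from inverse-variance-weighted replicate averages.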

| Variant | polymerase ribozyme fitness (log ratio) |
| --- | --- |
| GGAUCUUCUCGAUGUAAUAAAAAAGACAAAUCUGCCACAAAGCUUGAGAGCAUCUUUGGAUGCAAAGGCGGCAGCCUUCGGUAGCGCGAUAGCGCCAACGUUCUCCACUAUGACACUCAAAACGCGUGCUCCGUUGAAUGGAGUUUAUCAUG [C14G C18U C57U G65A G83A A106C G117U] | ≤ -4.2 |
| GGAUCUUCUCGAUGUAACAAAAAAGACAAAUCUGCCACAAAGCUUGAGAGCAUCUUAGGAUGCAGAGGCGGCAGCCUUCGGUGGCGCGAUAACGCUAACGUUCUCACCUAUGACACGCAAAACUCGUGCUCCGUUGAAUGGAGUUUAUCAUG [C14G C57A G92A C96U A107C G124U] | ≤ -4.2 |
| GGAUCUUCUCGAUGUAACAAAAAAGACAAAUCUGCUACAAAGCUUGAGAGCAUCUUCGGAUGCAGAGGCGGCAGCCUUCGGUGGCGCGAUACCGCCAACGUUCUCAACUAUGACACGCAAAACGCGUGCUCCGUUGAAUGGAGUUUAUCAUG [C14G C36U G92C] | ≤ -4.2 |
| GGAUCUUCUCGAUGUAACAAAAAAGACAAAUCUGCCACAAAGCUUGAGAGCAUCUUCGGAUGCAGAGGCGGCAGCCUUCGGUGGCGCGAUUGGGCCAACGUUCUCAACUAUGACACGCAAAACGAGUGCUCCGUUGAAUGGAGUUUAUCAUG [C14G A91U C93G C125A] | ≤ -4.2 |
| GGAUCUUCUCGAUGUAACAAAAAAGACAAAUCUGCCACAAAGCUUGAGAGCGUCUUCGGAUGCAGAGGCGGCAGUCUUCGGUGGUGCGAUAGCGCCAACGUUCUCAACUAUGACACGCAAAACGCGUGCUCCGUUGAAUGGAGCUUAUCAUG [C14G A52G C75U C85U U144C] | -3.71 |
| GGAUCUUCUCGAUGUAAUAAAAAAGACAAAUCUGCCAUAAAGCUUGAGAGCACCUUCAGAUGCAGAGGCGGCAGCCUUCGGUGGCGCGAGAGGGCCAACGUUCUCAACUAUGACCCGUAAAACGCGUGCUCCGUUGUAUGGAGUUUAUCAUG [C14G C18U C38U U53C G58A U90G C93G A115C C118U A137U] | ≤ -4.2 |
| GGAUCUUCUCGAUGUAACAAAAAAGACAAAUCUGCCACAAAGCUUGAGGGCAUCUUCGGAUGCAGAGGCGGCAGCCUUCGGUGGCGCGAUAGCGCCAACGUUCUCAACUAUGACACGCAAAACGCGUGCUCCGUUGAAUGGAGUUUAUCAUG [C14G A49G] | -2.92 |
| GGAUCUUCUCGAUGUAACAAAAAAGACAAAUCUGCCACAAAGCUUGAGAGCAUCUUCGGAUGCAGAGGCGGCGGCCUUCGGUGGCGCCAUAGCGCCAUGGUUCUCAACUAUGACACGCAAAACGCGUGCUCCGUUGAAUGGAGUUUAUCAUG [C14G A73G G88C A98U C99G] | ≤ -4.2 |
| GGAUCUUCUCGAUGUAACAAAAAAGACAAAUCUGCCACAAAGCUUGAGAGCAUCUUCGGAUGCAGAGGCGGCAGCCUUCGGUGGCGCGAUUGCGCCAACGUUCUCAACUAUGACACGCAAAACGCGUGCUCCGUUGAAUGGAUUUUAUCAUG [C14G A91U G143U] | -3.88 |
| GGAUCUUCUCGAUGUAACAAAAAAGACAAAUCUGCCACAAAGCUUGAGAGCAUCUUAGGAUGCAGAGGCGGCAGCCUUCGGUGGUGCGAUAGCGCCAAAGUUCUCAACUAUGACACGCAAAAUGCGUGCUCCGUUGAAUGGAGUUUAUCAUG [C14G C57A C85U C99A C123U] | -3.49 |
| GGAUCUUCUCGAUGUAACAAAAAAGACAAAUCUGCCAAAAAGCUUGAGAGCAUCUUCGGGUGCAGAGGCGGCAGCCACCGGUGGCGGGAUAGCGCCAACGUUCUCAACUAUGACACGCAAAACGAGUGCUCCGUUGAAGGGAGUUUAUCAUG [C14G C38A A60G U77A U78C C87G C125A U139G] | ≤ -4.2 |
| GGAUCUUCUCGAUGUAACAAAAAAGACAAAUCUGACACAAAGCUUGAGAGCAUCUUCGGGUGCAGAGGCGGCAGCCUUCGGUGGCGCGAUAGCGCCAACGUUCUCAACUAUGACACGCAAAACGCGUGCCCCGCUGAAUGGAGUUUAUCAUG [C14G C35A A60G U130C U134C] | ≤ -4.2 |
| GGAUCUUCUCGAUGUAACAAAAAAGACAAAUCUGCUACAAAGCUGGAGAGCAUCUUCGAAUGCAGAGGCGGCAGCCUUCGGUGGCGCGAUAGCGUCGUCGUUCUCAACUAUGACACGCAAAACGAGUGCUCCGUUGAAGGGAGUUUAUCAUG [C14G C36U U45G G59A C95U A97G A98U C125A U139G] | -4.03 |
| GGAUCUUCUCGAUGUAAUAAAAAAGACAAAUCUGCCACAAAGCUUGAGAGCGUCUUCGGAUGCAGAGGCGGCAGCCUUCGUUGGCGCGAUAACGCCAACGUUCUCAACUAUGACACGCAAAACGCGUGCUGCGUUGAAUGGAGUUUAUCAUG [C14G C18U A52G G81U G92A C131G] | ≤ -4.2 |
| GGAUCUUCUCGAUGUAACAAAAAAGACAAAUGUGCCACAAAGCUUGAGAGCAUCUUCGGAUGCAGAGGCGGCAGCCUUCGGUGGCGCGAUAGCGCCAACGUUCUCAACUAUGACACGCAAAACGCGUGCUCCGUUGAAUGUAGUUUCUCAUG [C14G C32G G141U A147C] | ≤ -4.2 |
| GGAUCUUCUCGAUGUAACAAAAAAGACAAAUCUGCCACAAAGCUUGAGAGCAUCUUCGGAUGCAGAGGCGGCGGCCUUGGGUGGCGCGAUAGCGCCAGCGUUCUCAACUAUGACACGCAAAACGCGUGCUCCGUUGAAUGGACUUUAUCAUG [C14G A73G C79G A98G G143C] | ≤ -4.2 |
| GGAUCUUCUCGAUGUAACAAAAAAGACAAAUCUGCCACAAUGCUUGAGAGCAUCUUCGGAUCCAGAGGCGGCAGCCUUCGGUGGCGCGAUAGCGUAAACGUUCUCAACUAUUACACGCAAAACGCGUGCUCCGUUGAAUGGUGUUAAUCGUG [C14G A41U G62C C95U C96A G112U A142U U146A A150G] | ≤ -4.2 |
| GGAUCUUCUCGAUGUAAUAAAAAAGACAAAUCUGCCACAAAGCUUGAGAGCAUCUUCGGAUGCAGAGGCGGCAGCCUUCGGUGGCGCGAUAGCGCCAACGUUCUCAACUAUGACACGCAAAACGCGUGCUCCGUUGAAUGGAGUUUAUCAUG [C14G C18U] | -1.18 |
| GGAUCUUCUCGAUGUAACAAAAAAGACAAAUCUGCCAUAAAGCUUGAGAGCAUCUUCGGAUGCAGAGUCGGCAGCCUUCUGUGGCGCGAUGGCGCCAACGUUAUCAACUAUGACACGCAAAACGCGUGCUCCGUUGAACGGAGUUUAUCAUG [C14G C38U G68U G80U A91G C103A U139C] | ≤ -4.2 |
